Results: patent US20110136121A1 (TORAY INDUSTRIES, published 2011)

T1: canine CAPRIN-1, endogenous (canine tissue sections; serum of cancer-bearing dogs) (dog, UniProt A0A8I3S8S8 2-717)
T1 construct: Endogenous protein or fragment of it; also called antigen polypeptide contained in specimens (dog)
T1 sequence: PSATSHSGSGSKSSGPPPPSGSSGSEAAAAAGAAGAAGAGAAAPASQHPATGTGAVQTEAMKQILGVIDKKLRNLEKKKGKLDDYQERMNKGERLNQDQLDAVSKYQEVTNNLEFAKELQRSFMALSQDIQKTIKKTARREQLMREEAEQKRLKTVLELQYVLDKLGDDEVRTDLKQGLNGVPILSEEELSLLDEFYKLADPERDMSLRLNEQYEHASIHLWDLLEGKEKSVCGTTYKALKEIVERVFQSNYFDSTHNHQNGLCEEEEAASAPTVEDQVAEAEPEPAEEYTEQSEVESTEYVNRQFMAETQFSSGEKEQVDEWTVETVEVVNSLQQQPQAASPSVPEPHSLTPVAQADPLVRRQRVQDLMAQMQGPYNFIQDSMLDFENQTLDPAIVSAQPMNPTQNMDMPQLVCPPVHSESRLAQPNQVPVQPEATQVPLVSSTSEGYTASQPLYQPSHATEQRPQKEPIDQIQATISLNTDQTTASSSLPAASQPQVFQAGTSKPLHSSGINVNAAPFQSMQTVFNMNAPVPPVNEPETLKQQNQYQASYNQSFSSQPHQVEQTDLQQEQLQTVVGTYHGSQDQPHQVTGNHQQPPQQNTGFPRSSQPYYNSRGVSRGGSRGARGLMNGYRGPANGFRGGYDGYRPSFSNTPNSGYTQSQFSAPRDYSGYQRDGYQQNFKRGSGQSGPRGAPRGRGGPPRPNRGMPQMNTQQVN

B1: monoclonal antibody #2 (antibody, V domains shown)
VH: EVQLHQFGAELVKPGASVKISCKASGYTFTDYNMDWVKQSHGKSLEWIGDINPNYDSTSYNQKFKGKATLTVDKSSSTAYMELRSLTSEDTAVYYCARSRSYDYEGFAYWGQGTLVTVSA
VL: DIQLTQSPASLSASVGETVTITCRASGNIHNYLAWYQQKQGKSPQLLVYNAKTLADGVPSRFSGSGSGTQYSLKINSLQPEDFGSYYCQHFWSTLTFGGGTKLEIK
notes: mouse hybridoma monoclonal antibody; also called anti-CAPRIN-1 monoclonal antibody #2
B2: monoclonal antibody #3 (antibody, V domains shown)
VH: B1 VH
VL: SGDRVSLSCRASQSISNYLHWYQQKSHESPRLLIKYASQSISGIPSRFSGSGSGTDFTLSINSVETEDFGMYFCQQSNSWPYTFGAGTKLEIKQ
notes: mouse hybridoma monoclonal antibody; also called anti-CAPRIN-1 monoclonal antibody #3
B3: monoclonal antibody #6 (antibody, V domains shown)
VH: LQESGAELARPGASVKLSCKASGYTFTSYWMQWVKQRPGQGLEWIGAIYPGDGDTRYTQKFKGKATLTADKSSSTAYMQLSSLASEDSAVYYCARGEYGNYFAYWGQGTTVTVSS
VL: TSDASLGERVTITCKASQDINSYLSWFQQKPGKSPKTLIYRANRLVDGVPSRFSGSGSGQDYSLTISSLEYEDMGIYYCLQYDEFPLTFGGGTKLEIKQ
notes: mouse hybridoma monoclonal antibody; also called anti-CAPRIN-1 monoclonal antibody #6

Columns and labels:
[1] = molecular target: feline CAPRIN-1, endogenous (serum of cancer-bearing cats) (cat); assay: sandwich ELISA: polyclonal anti-SEQ ID NO: 43 immobilised, serum of cancer-bearing cats, monoclonal antibody 1 ug/ml as secondary antibody
[2] = molecular target: T1, canine CAPRIN-1, endogenous (canine …); assay: sandwich ELISA: polyclonal anti-SEQ ID NO: 43 immobilised, serum of cancer-bearing dogs, monoclonal antibody 1 ug/ml as secondary antibody
From the text: With the use of the polyclonal antibody against CAPRIN-1-derived peptide (SEQ ID NO: 43) obtained in Example 3 (1) and each monoclonal antibody against the CAPRIN-1 protein obtained in Example 3 (2) in combination, the antigen polypeptide itself contained in specimens (cancer-bearing living organism-derived serum) reacted positive upon cancer diagnosis using the polypeptide of CAPRIN-1 in Example 4 (1)-(3) was detected by Sandwich ELISA. The polyclonal antibody was used as a primary antibody and each monoclonal antibody was used as a secondary antibody. The serum protein level of the protein specifically reacting with each of the above antibodies was measured.
The primary antibody was immobilized by adding the polyclonal antibody diluted to a concentration of 5 μg/ml with phosphate buffered saline to 96-well immobilizer amino plates (Nunc) at 100 μl/well and then shaking the plates at room temperature for 2 hours. Blocking was performed by adding a 50 mM sodium bicarbonate buffer solution (pH 8.4) (hereinafter, blocking solution) containing 0.5% BSA (bovine serum albumin, Sigma Aldrich Japan) at 100 μl/well and then shaking at room temperature for 1 hour. Subsequently, a cancer-bearing living organism-derived serum diluted using the blocking solution was added at 100 μl/well and then the resultants were shaken at room temperature for 3 hours for reaction. The dilution rate at this time was adjusted with 10-fold (10-1000-fold) dilution series. After 3 instances of washing with phosphate buffered saline (hereinafter, PBS-T) containing 0.05% Tween20 (Wako Pure Chemical Industries, Ltd.), each monoclonal antibody as a secondary antibody diluted to a concentration of 1 μg/ml with the blocking solution was added at 100 μl/well and then the resultants were shaken at room temperature for 1 hour for reaction. After 3 instances of washing with PBS-T, an HRP-labeled anti-mouse IgG (H+L) antibody (Invitrogen Corporation) as a tertiary antibody diluted 5000-fold with the blocking solution was added at 100 μl per well and then left to stand at room temperature for 1 hour. […]

Row | Binder | absorbance at 450 nm (polypeptide level) [1] | absorbance at 450 nm (polypeptide level) [2]
1 | B1 | > 0.3 | ≥ 0.3
2 | B2 |  | ≥ 0.3
3 | B3 |  | ≥ 0.3
